For the test, the target named is cetuximab. Briefly: SPR, immobilized cetuximab IgG (Figure 12).

Sequence of avidin saturated with biotinylated meditope (P02701 25-152): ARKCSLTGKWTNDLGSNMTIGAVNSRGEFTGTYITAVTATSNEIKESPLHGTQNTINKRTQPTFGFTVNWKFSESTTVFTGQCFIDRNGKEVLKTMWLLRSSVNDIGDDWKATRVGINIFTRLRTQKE

In the case of “avidin saturated with biotinylated meditope (from UniProt P02701 25-152)”, the fold reduction of the off-rate against the monovalent meditope was above 36 fold.

The record behind these values is EP3741773A1.
